Laboratory results published in article PMC5651189.

B1: t-Darpp T39A phosphorylation mutant (natural protein)
chain: AYAPPSLKAVQRIAESHLQSISNLNENQASEEEDELGELRELGYPREEDEEEEEDDEEEEEEEDSQAEVLKVIRQSAGQKTTCGQGLEGPWERPPPLDESERDGGSEDQVEDPALSEPGEEPQRPSPSEPGT
B2: Darpp-32 (dopamine- and cAMP-regulated phosphoprotein of 32 kDa) (natural protein)
chain: MDPKDRKKIQFSVPAPPSQLDPRQVEMIRRRRPTPAMLFRLSEHSSPEEEASPHQRASGEGHHLKSKRPNPCAYTPPSLKAVQRIAESHLQSISNLNENQASEEEDELGELRELGYPREEDEEEEEDDEEEEEEEDSQAEVLKVIRQSAGQKTTCGQGLEGPWERPPPLDESERDGGSEDQVEDPALSEPGEEPQRPSPSEPGT

Biological target: PKA regulatory subunit RIα/β (human (endogenous in SK-Br-3)) (UniProt P10644)
Test: proximity ligation

Chain of PKA regulatory subunit RIα/β (human (endogenous in SK-Br-3)) (P10644 whole entry): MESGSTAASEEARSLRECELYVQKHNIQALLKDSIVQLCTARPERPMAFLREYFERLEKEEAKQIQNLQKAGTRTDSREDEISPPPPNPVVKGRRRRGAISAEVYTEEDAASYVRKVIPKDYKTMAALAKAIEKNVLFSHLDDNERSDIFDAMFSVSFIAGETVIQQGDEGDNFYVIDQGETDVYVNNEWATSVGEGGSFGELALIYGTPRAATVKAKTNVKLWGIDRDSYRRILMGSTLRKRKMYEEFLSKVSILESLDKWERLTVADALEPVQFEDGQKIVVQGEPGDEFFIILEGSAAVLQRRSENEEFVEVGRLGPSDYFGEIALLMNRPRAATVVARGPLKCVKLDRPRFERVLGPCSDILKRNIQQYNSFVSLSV

Binder	fold CICF in SK.tDp^T39A against SK.empty cells	fold CICF in SK.dDp against SK.empty and SK.tDp cells
B1	3 fold	–
B2	–	4 fold
